Experimental data from article PMC6499931.

Tests used:
[1] = target: human FcγRIIIa stably expressed on CHO cells (human) (UniProt P08637)
[2] = target: human FcγRIIIa stably expressed on CHO cells (human) (UniProt P08637); test: flow cytometry on cells

Chain of UniProt P08637 (P08637 17-254): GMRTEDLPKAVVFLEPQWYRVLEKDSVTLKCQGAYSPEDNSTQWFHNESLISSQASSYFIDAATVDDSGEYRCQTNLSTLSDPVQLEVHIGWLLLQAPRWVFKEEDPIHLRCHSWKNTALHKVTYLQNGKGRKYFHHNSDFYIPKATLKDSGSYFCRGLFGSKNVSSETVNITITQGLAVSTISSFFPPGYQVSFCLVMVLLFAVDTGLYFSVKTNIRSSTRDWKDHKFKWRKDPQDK

NK cell-mediated ADCC against the FucGM1+ SCLC cell line DMS79, EC50 [1] [nM]	EC50 [2] [nM]	Binder
0.06	3.5	BMS-986012, nonfucosylated fully human IgG1 anti-fucosyl-GM1 antibody (antibody, V domains shown) VH: EVQLVESGGGSVQPGESLRLSCVASGFTFSRYKMNWVRQAPGKGLEWVSYISRSGRDIYYADSVKGRFTISRDNAKNSLYLQMNSLRDEDTAVYYCAGTVTTYYYDFGMDVWGQGTTVTVSS VL: DIQMTQSPSSLSASVGDRVTITCRASQGISSWLAWYQQKPEKAPKSLIYAASSLQSGVPSRFSGSGSGTDFTLTISSLQPEDFATYYCQQYNSYPPTFGGGTKVEIK
8	138	7E4, fucosylated parental anti-fucosyl-GM1 antibody in conventional fucosylated IgG1 format (antibody, V domains shown) VH: EVQLVESGGGSVQPGESLRLSCVASGFTFSRYKMNWVRQAPGKGLEWVSYISRSGRDIYYADSVKGRFTISRDNAKNSLYLQMNSLRDEDTAVYYCAGTVTTYYYDFGMDVWGQGTTVTVSS VL: DIQMTQSPSSLSASVGDRVTITCRASQGISSWLAWYQQKPEKAPKSLIYAASSLQSGVPSRFSGSGSGTDFTLTISSLQPEDFATYYCQQYNSYPPTFGGGTKVEIK
